This note sets out measurements from article PMC4337239, “Polyol specificity of recombinant Arabidopsis thaliana sorbitol dehydrogenase studied by enzyme kinetics and in silico modeling” (Frontiers in Plant Science, 2015).

Common to all, as to experiment: purified protein
Substrate in data set [1]: OC[C@@H](O)[C@@H](O)[C@@H](O)CO
As to conditions: 1.36 mM NAD+, 100 mM Tris-HCl pH 9, 25 °C, Michaelis-Menten fit.

Substrate in data set [2]: OC[C@@H](O)[C@H](O)[C@@H](O)CO
As to conditions: 1.36 mM NAD+, 100 mM Tris-HCl pH 9, 25 °C, fit with substrate inhibition.

Substrate in data set [3]: OC[C@@H](O)[C@@H](O)[C@H](O)[C@@H](O)CO
It counts as biochemical, Arabidopsis thaliana. The conditions noted are these: 1.36 mM NAD+, 100 mM Tris-HCl pH 9, 25 °C, Michaelis-Menten fit.

B1: recombinant AtSDH (Arabidopsis thaliana) (protein)
chain: MGKGGMSQGEGSKVEEENMAAWLVGINTLKIQPFLLPSVGPHDVRVRMKAVGICGSDVHYLKTMRCADFVVKEPMVIGHECAGIIEEVGEEVKHLVVGDRVALEPGISCWRCNLCREGRYNLCPEMKFFATPPVHGSLANQVVHPADLCFKLPENVSLEEGAMCEPLSVGVHACRRAEVGPETNVLVMGAGPIGLVTMLAARAFSVPRIVIVDVDENRLAVAKQLGADEIVQVTTNLEDVGSEVEQIQKAMGSNIDVTFDCAGFNKTMSTALAATRCGGKVCLVGMGHGIMTVPLTPAAAREVDVVGVFRYKNTWPLCLEFLTSGKIDVKPLITHRFGFSQKEVEDAFETSARGSNAIKVMFNL
notes: full length 364 residues; N-terminal 6xHis tag cut off by TEV protease; pEXP5-NT/TOPO, cell-free in vitro expression (Expressway); oligomeric state not determined
By Km is commonly meant the substrate concentration at which the rate is half of its maximum. By kcat is commonly meant the maximal rate divided by the concentration of active sites. One may read the kcat/Km as the second-order rate constant that governs catalysis at low substrate concentration. Take B1: in data set [1], the Km is 1050 ± 100 µM, the kcat is 1.83 s⁻¹ and the kcat/Km was determined as 1740 M⁻¹ s⁻¹. In addition, in data set [2], the Km amounted to 270 ± 40 µM, the kcat was found to be 2.12 s⁻¹ and the kcat/Km was found to be 7740 M⁻¹ s⁻¹. Also, in data set [3], the Km is 960 ± 70 µM, the kcat worked out at 2.13 ± 0.03 s⁻¹ and the kcat/Km was 2230 ± 170 M⁻¹ s⁻¹.
